Assay results taken from the DeepSol protein solubility set.

Assay: soluble on expression in E. coli; label from the status in PepcDB or PDB records

Row | Sequence | soluble on expression in E. coli
1 | YSGLHLCESHLCRAVTKRVRRRIREDGLVSDDATVEDPETWVIGLSGGKDSVVLTQILHDTFAEDPRIELVALSIHEGIEGYRDASLEACEELTDDLGIEHVTVSYAEEFGVQMDDVVEDDPEGMAACAYCGVFRRDLLSKYAEELDADKLLTGHNLDDEAETALMNFLEGDISQIAKHFEASLGPFDSSADAPTEQTREAQDHHIPRAKPLRDIPEKEVALYARFEDLPAHITEC | not soluble
2 | MSLALAIFDLDETLIHGDCASLWSEQMARLGWVDGKDFLRRDHELMEAYGRGHLQMEDYMAFSLEPIAGRTLEEVEHLVAPWVEEVIEPIIYGDACRCIAEHRKRGDRILIISASGTHLVGPIAARLGVDEYLAIELEAVNGVYTGKTHGVLTYREGKITRLLEWLDQEQENLEGASFYSDSRNDLPLLLRVDHPHVVNPDAVLREHAEINGWPTLSWSEGHHHHHH | soluble
3 | MGHHHHHHSHMTLIYVDADNTRNELKATTGSNFTITHRKDPLTTKWKTVFGNNGDQWLCNVTGIGNATVNSNATICVSSCGHNTLDLCNLKSGDSGFFDLSRWFGENMDEYSGDVWHLEVS | soluble
4 | MNFPISTIRIGGWVVVAKNPDDIVAKFYFAKKKLIWEFLFGEPETNTLRLKRKIEIQWNDVSSFEESISSRDETGILKIELKKRPTFFIETNPQAGKHTQWKQLDHDFTGDHASNYRRHTLHFPPGVLQKNLEKLVTDSFWSKLYEVPFPVHESRYFDSGFENNSSRNSHSHTVGFNVNNGPQHHFSQGIGGVGVGEGNFSMANGGWQRNSYSPVNSLNYNTANEFFGMQATPPSSQVVNEHYNTQNDFTGSQFGYHMNQDEIQKILESQAYAVPDTQTKLMSSAMNNVPKYPQAGSCLESMLFWYEHRRRFQQ | soluble
5 | MAHHHHHHMSGVNAWGRMHTPAKQSQFTLDMFEEWKAKQNEDIAQRGADRDPAVEEEHNRYMLRQNLNAYVCYKELDRYTTCLEDKRLIRRRDDEDGARGGGTGVSLASSFEINTRNKVNEKLCRATHNTYVSCMSSQKNQEVVLQSASLEPHCTERRAKLFRCLRENQVSEAQTNTPQCTDTYRSLLRCGLNHLWNHYWREITKFSDTDEFHLYELSRDDNKKQAYLRALTTSEAQRQSHLREARDTMLGYYLDPKAAQKGDS | not soluble
6 | MAHHHHHHMDMQEQISDKGADDYDDTLVELKESELLKEDEKKKTKKKLYELNELHHLVNALPYIDSYDNELEQNAKRLVEEEMNLMHKNNEIKNYLETFPLPKITYLSNDNSIIQNELKRCEENRKMQKLNFDHYNIENDVLNNKNIEEWEKTLKKYEIILENSHNALINMELMNKYKEVMWSEHMKVFNHLDINLQNNIKTLKDDIDNINKKRKLHQLSYVNELSTLQNEQKEYKKKNNMVLNEIKKLMTENMLMKYKTNMI | not soluble
7 | MQGEALKDFLFDKADDMKAVDIVTLDVKEKSSVTDYMIVCTGTSKRHVASIAEHVANEAKLSGLQPLGMNGENEGEWVVLDMGSVMLHVMQEAPRELYQLEKLWGLEHHHHHH | not soluble
8 | MSSPKISIIIPVYMAESYLHRCVDSIITQTFTDWELLLVDDGSPDHSGELCEKYASAYKSRIKAFHKPNGGVASAREFGMQQARGEYSIHVDPDDWIDSNTLEELYQQAVKEQADMVICDFMMEYPNRQIHNCQKPQLLDSSSFMHQLLQQERHGSLCNKLIRTELYHKYQLHFPEKMICWEDLYICCSILLHGCKLAYVPHALYHYDFYTNDNSMVRHTDMRGLQAQIDFCRLMQAKISPEYLPELNELKGITLITAFRNQLLNEQAIRSLFPEINDWYVTRYGHDYEKSNYYGLTLVLRGYNFKTARRRMFVAKFLVQIKNKITRML | not soluble
9 | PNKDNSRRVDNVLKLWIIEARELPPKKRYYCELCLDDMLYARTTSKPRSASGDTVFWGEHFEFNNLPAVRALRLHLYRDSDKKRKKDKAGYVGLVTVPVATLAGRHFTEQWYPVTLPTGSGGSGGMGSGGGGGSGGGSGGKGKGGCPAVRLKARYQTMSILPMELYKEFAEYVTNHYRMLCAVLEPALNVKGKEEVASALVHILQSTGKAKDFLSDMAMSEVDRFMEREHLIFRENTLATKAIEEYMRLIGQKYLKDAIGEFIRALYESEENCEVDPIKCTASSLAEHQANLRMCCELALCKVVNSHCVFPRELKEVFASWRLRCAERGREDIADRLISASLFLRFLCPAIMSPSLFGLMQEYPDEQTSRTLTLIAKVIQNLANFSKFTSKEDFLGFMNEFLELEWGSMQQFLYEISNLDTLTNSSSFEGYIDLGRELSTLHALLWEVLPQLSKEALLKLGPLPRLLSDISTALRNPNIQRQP | soluble
10 | MSGLHILAFGAHADDVEIGMAGTIAKYTKQGYEVGICDLTEADLSSNGTIELRKEEAKVAARIMGVKTRLNLAMPDRGLYMKEEYIREIVKVIRTYKPKLVFAPYYEDRHPDHANCAKLVEEAIFSAGIRKYMPELSPHRVESFYNYMINGFHKPNFCIDISEYLSIKVEALEAYESQFSTGSDGVKTPLTEGYVETVIAREKMFGKEVGVLYAEGFMSKKPVLLHADLLGGCKLGHHHHHH | soluble
11 | MSLCRVLAVKPSSYYDWMNRNISDQQIHRNQCELLVKAAHTETRERYGVDRLQAHLRQQGHYVSQYMIRSIKEEYGIKCRRHKRFKMTTNSNHNKLVYLNVLDQQFDAKHPNESWVSDITYIWTNEGWLYLAGVKDLYTKELVGYAINKRMTADLVCRALNMAIKNKRPRQGLIVHSDRGSQYCSHAYHKIIEQHQFTGSMSAKGNCFDNAPIESFWGVLKNELVYHQDYKTRFEAISDITQYIELEYNEERLAKHCFAATQDKSCARSGAREGHHHHHH | soluble
12 | MEIQFLGTGAGQPAKARNVSSLVLKLLDELNEIWMFDCGEGTQRQILETTIKPRKIRKIFITHLHGDHVFGLPGFLSSRAFQANDEQTDVDIYGPVGIKHLVMASIRTSGAHLPYHIHFHEFDAKHLGKILETDKFMVYAEKLDHTIFCVGYRVVQKDLEGTLDAEKLKAAGLPFGPLFGRVKNGQDVVLEDGTTIIAKDYISAPKKGKVITILGDTRKTDASIRLALGADVLVHESTYSKGDENLARRHGHSTNTEAARVAKAASVKKLLLNHISARFLSHDISRMRDDAQEIFTDVHIVRDLEEVKLLEHHHHHH | not soluble
13 | MGSDKIHHHHHHMVYPVRIDTIRYDRKFSFVVFVEDIQSSHQIIDNIMDIGDEIGYPYEVIVSAKDQVTDDYYSDEIKVVGTGLNRRSDGIQRSLKSSTGNYFVIFDPNIRYSLSYADLLYGYAETGSSEVLVSEILGFQTDVLRSVGGWRDLSYGEDIDLLVRVIDNYGVITYPFYGLKQIDLTELIKSTDSIRSGKIKKLRDLIISCNFKYQDIKTIAKILDKSSRISRLLYLSKILSNFARIRPYERPKNNYLTIMERIMESILAKEFLKITTVDFKPSLAISTKTAEYLAGESPLWRITEENGNFVREKI | not soluble
14 | MDKALTNHVIILSFDCLSALDFPILQKLPHFQSLIKKGTVVEKVEPIYPSVTYPSHSTIVTGNYPNKHGVVSNTLLQPGRESPDWHWYRKSIKGTTLYDEARKANLTTAALLWPVTGRANIDYNLPEIFPNRPWQNQVLVSLFSGSPLYQLDLNRRFGHIRNGLSQPELDDFVLASAVHTIQTKKPNIMFVHFTDLDTQRHYHGFESNETIAAIQRHDERLGKIIQALKESDLYEESTIIALGDHSALSENKSIQLNVLFHQRGLISLNKKRKLVDWKAYCQSCDGSAYVYVKDKNDTDTIREVQLLLEELLQNKQNGIEFILHDEAAKDCGADGNCLFMLEAREGYYFTENYTGDFIKEITEKDVTLSKKYTFGTHGYSPTKPNYETIFIAAGKGIKSGVTVPYMRLIDEGPTIARLLGLHLGETDGAIVEDLLQLLEHHHHHH | soluble
15 | MGSDKIHHHHHHMRLVNIAYVGEGEVLARPLVSPNGKVLLQAGVKLTRNYIDKLSRLGFDTMFIEDDTFQDVEIYSAVSIKTREAAYASLENLSKNLNEAQPHTVNLGEVKKAVQNIIADLLYSKDMLGNVMEIQGYDDYTFHHSVNTTIIALIMGISMGWHNGKLLELGMGVLMHDVGKIKIPSEILNKRGPLTPEEFAEIKKHAEYGFEILRKNHDINLLSAHIALQHQERWDGSGYPRGLKGNQIHEYGRLAAVADVYEALTSKRVYRNALQPYEAYEYVIANSDTLFEPKVVQNTFSKCITPYPTGTGVRLTNGLRGNVVKQNFTFPTRPYVRMTHEGEIRLIAPIDYNLAEHPSLMIVGIENK | not soluble
16 | NDRFSWDTQFNISTIKNKLTSLIDEKPIPVGNHVLQVGQPIGSFYMYKMDGIYQDNQEVPEKLYAKGVRAGDIKYADKDNDGDLTPADKEIVGKPLPDFFGGLTNRFRYGNFDLTIFNTFSVGNDVYATGMGGIDAVGHNNYGMRKDIAANRWTGPGTNNSIPRAMISTHNTQASTYLLHDGSYFKFKDVTLGYTLPSNLTQKLNISNMRVYLSAQNLWTISSYPGYDPEVSYSVNNSKTMGEDAMTVPQLRTFVCGFNLTF | not soluble
17 | HLDAIQNFGAMDILCTDKTGTLTQDKIVLENHTDVSGKVCERVLHAAWLNSHYQTGLKNLLDTAVLEGVELDAARGLAERWQKVDEIPFDFERRRMSVVVKEDDAAHQLICKGALQEILNVSTQVRYNGDIVPLDDTMLRRIRRVTDTLNRQGLRVVAVATKYLPAREGDYQRADESDLILEGYIAFLDP | not soluble
18 | MYTIQANPSGTRSIEVSSENLKTIEKYALFRHLIDSTGIVDEPVLDKLKLNIRSLIASQEEDSKELLDLCIDVIYHNNMKAFGLQQLIKLYLTWLSTQDAEEEEE | soluble
19 | MGHHHHHHSHELLVVGSRPELGRWEPRGAVRLRPAGTAAGDGALALQEPGLWLGEVELAAEEAAQDGAEPGRVDTFWYKFLKREPGGELSWEGNGPHHDRCCTYNENNLVDGVYCLPIGHWIEATGHTNEMKHTTDFYFNIAGHQAMHYSRILPNIWLGSCPRQVEHVTIKLKHELGITAVMNFQTEWDIVQNSSGCNRYPEPMTPDTMIKLYREEGLAYIWMPTPDMSTEGRVQMLPQAVCLLHALLEKGHIVYVHCNAGVGRSTAAVCGWLQYVMGWNLRKVQYFLMAKRPAVYI | not soluble
20 | MEYGNLRRQAASLKKSLFDQGYLDEQFCQVEDLQDEANPNFAEEVVSLFFKDSTRVMLNFEQAIEKHPKDFARWDTHMQQLKGSCSSIGASRVKNECTSFRNFCGEENAEGCTRSFQKVKREHAVLRQKWESYFQLLRQAGPAGTATRPAGK | not soluble
21 | MLKCAVDEAAGGRAQAFVSSGDNIGGSPFQSSILGDEPTLEALNQMGLDYSAVGNHEFDKGYADLSSRVADLADFDYLGANVEGENPDLAPYGISHLDGVKVAFVGTVSQETPMLVNSEGIEGITFTDPLEATNRVADELVGSGAADVVVALYHEGITGTEAWSENIDVVFAGHTH | not soluble
